Source: the Human Domainome abundance scans (Beltran et al. 2025)

B1: Triacylglycerol hydrolase DDHD2, residues 389 to 447; numbered along this chain, O94830 (parent)
chain: TLEEDLKKLQLSEFFDIFEKEKVDKEALALCTDRDLQEIGIPLGPRKKILNYFSTRKNS

Variants of: B1
Test: abundance fitness (aPCA) (normalised: wild type 0, dead -1); higher = more abundant; growth selection in yeast, the domain comes from the species named
Details: Homo sapiens

Abundance fitness, by site and new letter:
D24: N 0.155 | P -0.561 | Q -0.044 | R -0.396 | S 0.466 | T 0.494 | V -0.707 | W -0.888 | Y -0.627
K25: A -0.05 | D -0.027 | E 0.293 | F -0.078 | G 0.083 | H 0.159 | I -0.041 | L 0.03 | M 0.086 | N -0.494 | P -0.048 | Q -0.285 | R -0.053 | S -0.088 | T -0.302 | V 0.027 | W -0.329
E26: A -0.052 | D 0.002 | F -0.223 | G 0.27 | H 0.153 | I -0.219 | K 0.481 | L -0.383 | M -0.072 | N -0.109 | Q -0.107 | R 0.137 | T -0.173 | V -0.21 | W -0.086
A27: C 0.429 | D 0.437 | E 0.231 | F 0.708 | G 0.316 | H 0.357 | I -0.045 | K 0.67 | L -0.039 | M 0.639 | N 0.263 | P -0.355 | Q 0.475 | S -0.096 | T 0.057 | V 0.047 | W 0.841 | Y 0.6
L28: A -0.352 | C -0.325 | D -0.196 | E -0.129 | G -0.386 | H -0.252 | I -0.368 | K -0.467 | M -0.067 | N -0.404 | P -0.504 | Q -0.365 | R -0.498 | S -0.215 | T -0.342 | V 0.073 | W -0.383 | Y -0.634
A29: C -0.23 | D -0.264 | E 0.005 | F -0.066 | G -0.191 | H 0.06 | I 0.012 | L -0.323 | M -0.156 | N 0.142 | P 0.03 | R 0.011 | S 0.106 | T 0.032 | V -0.401 | W -0.399
L30: A 0.477 | C 0.593 | D 0.423 | E 0.49 | F -0.031 | G 0.452 | H 0.377 | I 0.513 | K 0.642 | M 0.483 | N 0.687 | P -0.177 | Q 0.238 | R 0.581 | S 0.489 | T 0.556 | V 0.329 | W 0.263 | Y 0.164
C31: A 0.343 | E -0.366 | F 0.605 | G -0.294 | I 0.035 | K 0.489 | L 0.526 | M 0.977 | N -0.304 | P -0.196 | Q -0.145 | R -0.188 | S 0.165 | T 0.145 | W 0.44 | Y 0.626
T32: A -0.226 | C -0.494 | D -0.163 | E 0.056 | F -1.18 | G -0.337 | H -0.359 | I -0.924 | K 0.083 | L -0.907 | M -0.299 | N -0.217 | P -0.589 | Q -0.251 | S -0.053 | V -0.631 | Y -0.388
D33: A -0.107 | C -0.675 | E -0.058 | F -0.609 | G -0.199 | H -0.283 | I -0.821 | K -0.489 | L -0.339 | M 0.124 | N -0.367 | P -0.659 | Q -0.446 | R -0.576 | S -0.235 | T -0.238 | V -0.693 | W -0.51 | Y -0.498
R34: A 0.216 | C 0.011 | E 0.463 | F 0.174 | G 0.201 | H 0.085 | I -0.135 | K -0.087 | L -0.001 | M 0.32 | N 0.368 | P -0.266 | Q 0.059 | S 0.074 | T 0.076 | V 0.072 | W -0.051 | Y 0.367
D35: A -0.309 | C -0.278 | E 0.197 | F -0.311 | G -0.182 | H 0.087 | I -1.13 | K 0.313 | L -0.762 | M 0.215 | N -0.06 | P -0.937 | Q 0.271 | R 0.053 | S -0.051 | T -0.264 | V -0.818 | W -0.429 | Y 0.207
L36: C -0.363 | D -0.565 | E -0.363 | F -0.797 | G -0.322 | H -0.352 | I -0.465 | K -0.06 | M -0.164 | N -0.267 | P -0.473 | Q -0.448 | R -0.434 | S -0.293 | T -0.298 | V -0.567 | Y -0.765
Q37: E 0.241 | F -0.01 | G 0.049 | H -0.229 | I 0.086 | L -0.343 | M -0.024 | N -0.305 | P -0.996 | R -0.302 | S -0.178 | T -0.129 | V -0.048 | W -0.37 | Y -0.232
E38: A 0.181 | C -0.129 | D 0.067 | F -0.468 | G -0.319 | H -0.302 | I -0.294 | K 0.299 | M 0.033 | P -0.888 | Q -0.161 | S -0.369 | T -0.051 | V -0.036 | Y -0.55
I39: A -0.204 | C -0.411 | D -0.3 | F 0.448 | G -0.261 | H -0.341 | K 0.196 | L 0.176 | M 0.764 | N -0.249 | Q -0.146 | R -0.008 | S -0.364 | T -0.336 | V -0.052 | W 0.613 | Y 0.548
G40: A -0.65 | C -0.573 | D -0.572 | E -0.556 | F -0.865 | H -0.502 | I -0.839 | K -0.651 | L -1.01 | N -0.253 | Q -0.216 | R -0.411 | T -0.67 | V -0.689 | W -1.23 | Y -1.2
I41: A -0.433 | C -0.425 | D -0.384 | E -0.13 | F -0.888 | G -0.323 | H -0.31 | L 0.069 | M 0.134 | N -0.837 | P -0.417 | Q -0.144 | R -0.289 | S -0.168 | V 0.003 | W -0.831 | Y -0.689
P42: A -0.518 | C -0.842 | E -0.213 | F -1.17 | G -0.587 | H -1.06 | K -0.737 | L -0.958 | M -0.649 | N -0.35 | Q -0.393 | R -0.872 | S -0.493 | T -0.839 | V -1.01 | Y -0.83
L43: C 0.47 | E 0.725 | F 0.313 | G 0.231 | H 0.519 | I 0.496 | M 0.298 | N 0.295 | Q 0.621 | R 0.512 | S 0.617 | T 0.543 | V 0.48 | W 0.16 | Y 0.473
G44: A 0.35 | C -0.176 | D 0.342 | E 0.574 | F -0.151
